{"source": "the DeepSol protein solubility set", "data": [{"test": "soluble on expression in E. coli; label from the status in PepcDB or PDB records", "values": [{"sequence": "MAHHHHHHMRGMWATLRLFRCDRNFTALNRGNGVYNIQSVASRDCALCHSQRAVKHRSLSPDDPFGEKSASDDPVDGFYGAWSNINVDAFANAAASEEVRMAHFGPEWSRFTTIGRLSVKKMNESGSSASSGSEDCGMASQHPLGAEELHMRELRERRKVLERNYSSYDEYVAKELGLSEVDDCDNACGLQSEDPEIVADGEEAEDNDDADEDADNVPLPQFMRRSGCEQENDTGVNIYSSDQQQQQQMGGVPANTVNEGHVPQRRGTLHPPEPLAQVVFCQLGEPHGDSELPREDPLHWDTEEVILWIRRMEAAQCVLSSGSLACDSLVMEDPSMQEAFRMARIDGDYLLKNTVPATMFQVMRRWHLRRHEIVLAVLKEQQRRGIDSHEINTSIFDDPIMRGILDSGRAKLDEVVLMVTPMLVQETICQGYLYCR", "soluble on expression in E. coli": "not soluble"}, {"sequence": "MAHHHHHHMRKKKTKDVPTVFIECALEGEGEKLCVRWLFGMGVGGKPYDADEYDATIVWVPSDYAFHGDKFTSPLRPIPTKNPVAVVRIPVYLCRKKALRSCGGNPMLLSVYGSYGECCDVVFENERLSLLDRGFVWGFAAVCGGSELGAAWHKAGCGLQRATSVNDFVSVSFYVQETGWCAAGQIVTHGSSAGVFVATAAMCVAPSLPLAVIALVPCVDCLTTLMDDSLPLTVSNWEEFGNPRDDADAYRLLRAMLPMDNIPSVGVALPHMLLLTAWHDTRVGFWESLAFTARLRAREMEEGAATR", "soluble on expression in E. coli": "soluble"}, {"sequence": "MAHHHHHHMRPGRLDKTIVVPLPDIKGRYEILKMYSSKIVLSKDVDLHVLSRRTVGMTGADLNNILNIAAIKCSVEGKKAVDMNSIEQAFDRVVVGLQRKSPLNEEEKNITAYHEGGHTLVNFYTKGSDPVHKATIMPRGMSLGVTWKIPISDKYSQKIRDVQSEIDILMGGLVSEEIIFGKNNVTTGCSSDLQRATHIAQSLVMNYGVGINEENISMFLQDKKNISEEMKIKIDKSIQRILLDSYNRAKKVLNQHIDELHRVASALVEYETLTSDEIKLAMQGKHDQIRKNRELKQKEFNLKDSRIS", "soluble on expression in E. coli": "not soluble"}, {"sequence": "MAHHHHHHMRSVWSGCRSIVSPPLWPLRLRHSVQVGAHGGHAFGMCSRSESVVSTFAMRVSLRWHGTTTPPSASPEGSSGAVHSVLSAAGHNDEEEASSSRSFRGTVRTVRLHNMPRTWLHEEVMQFLHQVAEHAGIDPPPEATQDNGTEGNANSKEYEEEDMTSAVPNVTSPFVARMHIPFGRRTGIVCGPPIIQLTSDALAGYLLNDLNFEPDDYRSRIYFTEVVNDKYHEATKMVNKDEAALLKMEQQEALESLELDRYLMAPDLLYDIAKMRQRRLVTRRSKLLLHTFADDDRPDEGEDGKDQSEVKDDDPTNENKRVRLRRHKKSKKTLRCVGEYKELGRGSVHSVPLALPYVQGRRGV", "soluble on expression in E. coli": "not soluble"}, {"sequence": "MAHHHHHHMRVPSLPIIIDEFPALAGSRSHSGSGSGSELFFLTHFHTDHMKGLSSAWTAGLIITGTITRQLLLNKFEGLRGRVLGLPFWCRTPVLSAAGAAHSETDSTTATAVPVVHVTLLPAFHIPGSAMIYIETPSGVTYLHTGDFKYTEAAAQMSSLRTFFQSHRVDHLYLDDTWLHLGHTELKSWPALTESPLVGHRGVGIANSGIRVLSKLLDADQVEEAIEAIGRRMDYQRQLHAQWVQQQSQCDSNGTAEALTPSSSSSSASAELSDARLPFIVRVYLHNQFGKELLIQQLAARLRTRALIDDARYARLLTVVEALEEERDDLEAFEGADPARLDGAAPPLSAEELAWRASGGEAARYPYDLNCFVSCSQAQQQKQQQLWARWRYDRGAMSPQQPQPPADHSVKRSCGPPLIEVVRNRASIEPATLQAASAARGGTPYYGVVISGWARLQSQTHGPAASGQVWQVPTTLHSTPQEIVDFVALLRPLSVTPLHYRPSRGEVVMQRLGPYLRVPFVNNHDTGCGATTAATAGRDAVALRGGVVRWMPYLPAYLLLSQMGGSDSRSGLGTSTLLGMLGARDAAAVCDNGLDALEEKPPRGFRIRPAGLPLPSSKAAVAASRSGGEAPGGCDSHTAAITASYFFAPSPTTTTSLPAQGMADVSGKATNPTDTSVSSRVRADGLRISTLLPSWRLSHLTQSYLSTQQSGGKRERVDVEMDGQSMVAHRAERHAATATKIESGERAAKAANDHDKDCPAVLLSSSATTGLLSLSDIADNVLA", "soluble on expression in E. coli": "not soluble"}, {"sequence": "MAHHHHHHMSALAKKMMEKYGWKEGEGLGKERSGIKSYVKVTRRDPHTATGLGHAADPAQGGSLASTHAVELDAIYGQLHKETRKRQRQSSKARVDQGDTSEDEVDNGGELSDVSSTNSGASSSSSADSKSEGKAAVAARAAVKRQRRAPSSSPSNSGNDGDDRTDSKRSKGEHIGDVTRMSDKELFQRCGGVRLGRAGRHRLFDGKLKRIQDSS", "soluble on expression in E. coli": "soluble"}, {"sequence": "MAHHHHHHMSDLSTAHASQGYRFDPSRMNGCLHDTIIFKRLPSRLRHSTGSRTRSLRVNRPAVE", "soluble on expression in E. coli": "soluble"}]}]}
